Assays:
[1] = target: T1, pm2 (sulfated tyrosine(s) among Y15, Y16, Y17; which ones is not told (the underlining of Table 1 is lost in the text)); experiment: ELISA on coated peptide [cont.]
T1 construct: also called sulfated CCR8 N-terminal peptide pm2
Procedure, shortened: (§1)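 Optical density after 15 min TMB development is the read-out, correlated with antibody binding to the coated peptide. Plates carried peptide at 500 ng/ml in carbonate/bicarbonate buffer. Antibodies were incubated at 1 μg/mL and at a tenfold dilution for 90 min at room temperature, followed by washes.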

[2] = target: T2, pm6 (Y16 and Y17 sulfated; Y15 not sulfated); experiment: ELISA on coated peptide [cont.]
T2 construct: also called sulfated CCR8 N-terminal peptide pm6
Procedure, shortened: as §1

[3] = target: T3, pwt1 (none (unmodified peptide)); experiment: ELISA on coated peptide [cont.]
T3 construct: also called unmodified CCR8 N-terminal peptide
Procedure, shortened: as §1

[4] = target: T4, pm5 (Y15 and Y17 sulfated; Y16 not sulfated); experiment: ELISA on coated peptide [cont.]
T4 construct: also called sulfated CCR8 N-terminal peptide pm5
Procedure, shortened: as §1

[5] = target: T5, pm4 (sulfated tyrosine(s) among Y15, Y16, Y17; which ones is not told (the underlining of Table 1 is lost in the text)); experiment: ELISA on coated peptide [cont.]
T5 construct: also called sulfated CCR8 N-terminal peptide pm4
Procedure, shortened: as §1

[6] = target: T6, pm3 (Y17 sulfated; Y15 and Y16 not sulfated); experiment: ELISA on coated peptide [cont.]
T6 construct: also called sulfated CCR8 N-terminal peptide pm3
Procedure, shortened: as §1

[7] = target: T7, pm1 (sulfated tyrosine(s) among Y15, Y16, Y17; which ones is not told (the underlining of Table 1 is lost in the text)); experiment: ELISA on coated peptide [cont.]
T7 construct: also called sulfated CCR8 N-terminal peptide pm1
Procedure, shortened: as §1

[8] = target: T8, human CCR8 (human, UniProt P51685 1-355); experiment: cell-based or functional assay
[9] = target: T8, human CCR8; experiment: cell-based or functional assay; remark: listed apart in the source
[10] = target: human CCR8 with a SNAP-tag at the N-terminus (human, UniProt P51685 1-355, SNAP-tag labelled covalently with Lumi4-Terbium); experiment: cell-based or functional assay
[11] = target: T8, human CCR8; experiment: flow cytometry, hCCR8-transfected CHO-K1 cells
Protocol: The same staining protocol was applied on human CCR8 transfected CHO cell line versus wild type CHO cell line, cutaneous T cell lymphoma HUT78 cell line and human activated T cell model.
Briefly, 1.10⁵ cells per well in a 96 well plate were incubated with a dilution of unconjugated anti-CCR8 mAb at 10 μg/mL then diluted at 1/3.33, 4 dilution points (during 30 min at 4° C.). […] Subsequently, cells are centrifuged (5 min at 400 g) and bound antibody is detected with F(ab′)2-Goat anti-Mouse IgG (H+L) Cross-Adsorbed Secondary Antibody, Alexa Fluor 488 (dilution 1/500) (Invitrogen by Thermofisher Scientific, Illkirch-Graffenstaden, France) or with F(ab′)₂-Goat anti-Human IgG Fc Secondary Antibody, PE (Invitrogen by Thermofisher Scientific, Illkirch-Graffenstaden, France) (dilution 1/1000) at 4° C. for 30 min. […] Bound detection antibody is quantified on a MacsQuant16 (Miltenyi, Gladbach, Germany) (B1 or B2 channel, 5000 events per acquisition). […] EC50 values were determined via nonlinear fit “log (agonist) vs.response—Variable slope (four parameters)” function of Graphpad prism. EC50 values were not constantly determined in the same experiments.

T6 sequence (peptide, as listed by the source): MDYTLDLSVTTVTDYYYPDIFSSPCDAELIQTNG
T7 sequence (peptide, as listed by the source): as above
T2 sequence (peptide, as listed by the source): as above
T5 sequence (peptide, as listed by the source): as above
T4 sequence (peptide, as listed by the source): as above
T1 sequence (peptide, as listed by the source): as above
T3 sequence (peptide, as listed by the source): as above

binding result [1]	binding result [2]	binding result [3]	binding result [4]	binding result [5]	binding result [6]	binding result [7]	extrapolated top plateau of hCCL1 curve with 5 µg/mL mAb, protocol #3 [8]	residual hCCL1 (100 nM) Gi2 response, protocol #2, mAb 0.08 µg/mL [9] [%]	residual hCCL1 (100 nM) Gi2 response, protocol #2, mAb 0.4 µg/mL [9] [%]	residual hCCL1 (100 nM) Gi2 response, protocol #2, mAb 10 µg/mL [9] [%]	residual hCCL1 (100 nM) Gi2 response, protocol #3, mAb 0.05 µg/mL [9] [%]	residual hCCL1 (100 nM) Gi2 response, protocol #3, mAb 0.5 µg/mL [9] [%]	residual hCCL1 (100 nM) Gi2 response, protocol #3, mAb 5 µg/mL [9] [%]	% hCCR8 internalization with CCL1 300 nM, mAb 1 µg/ml (HTRF) [10] [%]	% hCCR8 internalization with CCL1 300 nM, mAb 10 µg/ml (HTRF) [10] [%]	EC50 [11] [nM]	Binder
binds	binds	binds	binds	binds	binds	binds	517000 % of hCCL1 (100 nM)	62	38	30	94	63	39				anti-CCR8 mAb 1-20 (antibody, human IgG1, kappa, Humanized mAb, human IgG1 / kappa) heavy: not shown light: DIVMTQAAPSLSVTPGESASISCTSSKSLLHSNGNTYLYWFLQKPGQSPQLLIYRMSNLASGVPDRFSGSGSGTAFTLKISRVEAEDVGVYYCMQHREYPFTFGSGTKLEIKRTVAAPSVFIFPPSDEQLKSGTASVVCLLNNFYPREAKVQWKVDNALQSGNSQESVTEQDSKDSTYSLSSTLTLSKADYEKHKVYACEVTHQGLSSPVTKSFNRGEC
	binds		binds	binds	binds	binds	76400 % of hCCL1 (100 nM)	94	77	31	110	76	33	139	52		anti-CCR8 mAb 1-22 (antibody, human IgG1, kappa, V domains shown, Humanized mAb, human IgG1 / kappa) VH: EVQLLESGGGLVQPGGSLRLSCAASGFTFNAYAMNWVRQAPGKGLEWVARIRSKSNDYATYYGDSVKGRFTISRDNSKNTLYLQMNSLRAEDTAVYYCVRGREAYYRYDGGYYAMDVWGQGTTVTVSS VL: DIVMTQSPLSLPVTPGEPASISCRSSKSLLHSNGNTYLYWFLQKPGQSPQLLIYRVSNLASGVPDRFSGSGSGTDFTLKISRVEAEDVGVYYCMQHREYPFTFGQGTKLEIKR
																0.1	anti-CCR8 mAb 1-25 (antibody, human IgG1, kappa, V domains shown, Humanized mAb, human IgG1 / kappa) VH: QVQLVESGGGVVQPGRSLRLSCAASGFTFSNYRMHWVRQAPGKGLEWIAVIKVKSDNYGANYADSVKGRFTISRDNSKNTLYLQMNSLRAEDTAVYYCSSPTYPGSSGFAYWGQGTLVTVSS VL: DIQMTQSPSSLSASVGDRVTITCRASQDISNYLNWYQQKPDGTVKLLIYYTSRLHTGVPSRFSGSGSGTDYTLTISNLQQEDIATYFCQQGNKFPPTFGGGTKVEINR

— patent US20260132208A1 (DOMAIN THERAPEUTICS, published 2026)
